Biological target: dNxf2^UBA (recombinant) (Drosophila) (UniProt Q9VV73)
Test: ITC

UniProt Q9VV73, sequence (Q9VV73 whole entry): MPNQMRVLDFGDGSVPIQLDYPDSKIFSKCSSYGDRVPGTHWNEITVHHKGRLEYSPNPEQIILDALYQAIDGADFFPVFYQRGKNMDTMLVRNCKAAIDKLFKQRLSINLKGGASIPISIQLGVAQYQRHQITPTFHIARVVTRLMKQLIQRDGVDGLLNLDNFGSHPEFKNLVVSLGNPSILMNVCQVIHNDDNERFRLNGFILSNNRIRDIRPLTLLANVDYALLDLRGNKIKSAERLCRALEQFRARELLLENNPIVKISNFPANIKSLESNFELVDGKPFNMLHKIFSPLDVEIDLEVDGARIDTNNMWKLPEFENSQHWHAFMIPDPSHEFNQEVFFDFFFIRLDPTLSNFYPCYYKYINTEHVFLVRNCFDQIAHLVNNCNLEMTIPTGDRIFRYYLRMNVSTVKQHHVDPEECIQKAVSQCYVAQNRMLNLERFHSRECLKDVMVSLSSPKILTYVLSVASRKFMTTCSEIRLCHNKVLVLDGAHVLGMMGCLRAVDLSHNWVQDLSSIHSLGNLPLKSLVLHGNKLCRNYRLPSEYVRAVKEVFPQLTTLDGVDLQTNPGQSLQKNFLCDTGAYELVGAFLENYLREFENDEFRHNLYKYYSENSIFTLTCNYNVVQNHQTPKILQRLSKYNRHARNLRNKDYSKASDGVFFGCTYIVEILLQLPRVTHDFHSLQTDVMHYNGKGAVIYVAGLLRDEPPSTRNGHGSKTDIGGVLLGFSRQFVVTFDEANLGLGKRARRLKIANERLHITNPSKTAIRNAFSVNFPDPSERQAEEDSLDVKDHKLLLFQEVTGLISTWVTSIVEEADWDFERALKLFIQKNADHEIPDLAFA

Kd: 3.2 µM
Substance: Purified Panx^NIR (from UniProt Q9W2H9 315-343) (domain or fragment)
